Assay results from the supplement of paper PMC10567573.

B1: WEE1 (parent)
chain: FLGSSFSPVRCGGPGDASPRGCGA
B2: ZC3H15 (parent)
chain: ENLFTGEDLDELEEELNTLDLEE
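Also: lentivirally expressed fusions sorted by FACS into six bins by GFP to DsRed ratio, PSI derived from sequencing read proportions per bin multiplied by bin number.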

Variants of: B1
Assay: protein stability index of a GFP-peptide fusion (GPS, HEK-293T) (PSI 1-6); higher = more stable
Conditions: c terminus: a fixed tail appended
With FLGSSFSPVRCGGPGDASPRGCYA the protein stability index was 1.4.
FLGSSFSPVRCGGPGDASPRGCRA gave a protein stability index of 1.79.
In the case of FLGSSFSPVRCGGPGDASPRGCAA, the protein stability index is reported as 2.4.
Variant FLGSSFSPVRCGGPGDASPRGCQA has a protein stability index of 1.73.
For FLGSSFSPVRCGGPGDASPRGCVA, the protein stability index was 1.73.
Work on FLGSSFSPVRCGGPGDASPRGCFA yielded a protein stability index of 2.37.
With FLGSSFSPVRCGGPGDASPRGCTA the protein stability index was 1.7.
Work on FLGSSFSPVRCGGPGDASPRGCEA yielded a protein stability index of 1.75.
Variant FLGSSFSPVRCGGPGDASPRGCCA has a protein stability index of 2.64.
For FLGSSFSPVRCGGPGDASPRGCSA, the protein stability index was 1.82.
FLGSSFSPVRCGGPGDASPRGCDA showed a protein stability index of 2.22.
For FLGSSFSPVRCGGPGDASPRGCIA, the protein stability index was 2.35.
FLGSSFSPVRCGGPGDASPRGCLA showed a protein stability index of 1.09.
FLGSSFSPVRCGGPGDASPRGCMA showed a protein stability index of 1.63.
For FLGSSFSPVRCGGPGDASPRGCKA, the protein stability index was 1.71.
FLGSSFSPVRCGGPGDASPRGCPA showed a protein stability index of 2.06.
For FLGSSFSPVRCGGPGDASPRGCNA, the protein stability index was 1.66.
For FLGSSFSPVRCGGPGDASPRGCHA, the protein stability index was 3.02.
With FLGSSFSPVRCGGPGDASPRGCGI the protein stability index was 1.42.
In the case of FLGSSFSPVRCGGPGDASPRGCGT, the protein stability index is reported as 2.01.
In the case of FLGSSFSPVRCGGPGDASPRGCGM, the protein stability index is reported as 1.02.
For FLGSSFSPVRCGGPGDASPRGCGG, the protein stability index was 1.75.
FLGSSFSPVRCGGPGDASPRGCGH gave a protein stability index of 1.52.
With FLGSSFSPVRCGGPGDASPRGCGS the protein stability index was 1.58.
FLGSSFSPVRCGGPGDASPRGCGE gave a protein stability index of 1.88.
Work on FLGSSFSPVRCGGPGDASPRGCGQ yielded a protein stability index of 1.52.
In the case of FLGSSFSPVRCGGPGDASPRGCGY, the protein stability index is reported as 1.75.
With FLGSSFSPVRCGGPGDASPRGCGK the protein stability index was 2.17.
For FLGSSFSPVRCGGPGDASPRGCGW, the protein stability index was 1.37.
For FLGSSFSPVRCGGPGDASPRGCGD, the protein stability index was 2.27.
Work on FLGSSFSPVRCGGPGDASPRGCGL yielded a protein stability index of 1.82.
Variant FLGSSFSPVRCGGPGDASPRGCGP has a protein stability index of 1.58.
For FLGSSFSPVRCGGPGDASPRGCGV, the protein stability index was 1.6.
For FLGSSFSPVRCGGPGDASPRGCGN, the protein stability index was 2.28.
In the case of FLGSSFSPVRCGGPGDASPRGCGC, the protein stability index is reported as 2.6.
In the case of FLGSSFSPVRCGGPGDASPRGCGR, the protein stability index is reported as 1.98.
In the case of FLGSSFSPVRCGGPGDASPRGCGF, the protein stability index is reported as 2.42.
With FLGSSFSPVRCGGPGDASPVGCGA the protein stability index was 1.79.
FLGSSFSPVRCGGPGDASPSGCGA gave a protein stability index of 1.55.
Variant FLGSSFSPVRCGGPGDASPTGCGA has a protein stability index of 1.8.
Work on FLGSSFSPVRCGGPGDASPYGCGA yielded a protein stability index of 3.14.
For FLGSSFSPVRCGGPGDASPWGCGA, the protein stability index was 2.19.
For FLGSSFSPVRCGGPGDASPPGCGA, the protein stability index was 2.14.
FLGSSFSPVRCGGPGDASPQGCGA showed a protein stability index of 2.12.
Variant FLGSSFSPVRCGGPGDASPNGCGA has a protein stability index of 2.
For FLGSSFSPVRCGGPGDASPMGCGA, the protein stability index was 1.57.
For FLGSSFSPVRCGGPGDASPLGCGA, the protein stability index was 2.37.
With FLGSSFSPVRCGGPGDASPRGEGA the protein stability index was 1.95.
For FLGSSFSPVRCGGPGDASPRGDGA, the protein stability index was 1.61.
With FLGSSFSPVRCGGPGDASPRGGGA the protein stability index was 2.13.
FLGSSFSPVRCGGPGDASPRGWGA showed a protein stability index of 2.96.
With FLGSSFSPVRCGGPGDASPRGPGA the protein stability index was 1.59.
Work on FLGSSFSPVRCGGPGDASPRGRGA yielded a protein stability index of 2.27.
FLGSSFSPVRCGGPGDASPRGKGA showed a protein stability index of 2.17.
FLGSSFSPVRCGGPGDASPRGNGA showed a protein stability index of 1.8.
Work on FLGSSFSPVRCGGPGDASPRGSGA yielded a protein stability index of 2.73.
Variant FLGSSFSPVRCGGPGDASPRGTGA has a protein stability index of 2.47.
For FLGSSFSPVRCGGPGDASPRGFGA, the protein stability index was 2.48.
For FLGSSFSPVRCGGPGDASPRGHGA, the protein stability index was 2.94.
In the case of FLGSSFSPVRCGGPGDASPRGLGA, the protein stability index is reported as 1.75.
With FLGSSFSPVRCGGPGDASPRGQGA the protein stability index was 1.73.
For FLGSSFSPVRCGGPGDASPRGIGA, the protein stability index was 1.58.
Work on FLGSSFSPVRCGGPGDASPRGVGA yielded a protein stability index of 1.73.
With FLGSSFSPVRCGGPGDASPRGYGA the protein stability index was 2.1.
With FLGSSFSPVRCGGPGDASPRGAGA the protein stability index was 1.88.
Variant FLGSSFSPVRCGGPGDASPRGMGA has a protein stability index of 1.87.
FLGSSFSPVRCGGPGDASPRACGA showed a protein stability index of 1.92.
FLGSSFSPVRCGGPGDASPRCCGA gave a protein stability index of 3.5.
In the case of FLGSSFSPVRCGGPGDASPRSCGA, the protein stability index is reported as 1.67.
With FLGSSFSPVRCGGPGDASPRDCGA the protein stability index was 1.64.
FLGSSFSPVRCGGPGDASPRFCGA showed a protein stability index of 1.64.
FLGSSFSPVRCGGPGDASPRYCGA showed a protein stability index of 1.69.
FLGSSFSPVRCGGPGDASPRICGA showed a protein stability index of 1.97.
Work on FLGSSFSPVRCGGPGDASPRPCGA yielded a protein stability index of 1.91.
For FLGSSFSPVRCGGPGDASPRRCGA, the protein stability index was 1.96.
Variant FLGSSFSPVRCGGPGDASPRQCGA has a protein stability index of 2.17.
With FLGSSFSPVRCGGPGDASPRECGA the protein stability index was 2.06.
FLGSSFSPVRCGGPGDASPRHCGA showed a protein stability index of 1.87.
For FLGSSFSPVRCGGPGDASPRMCGA, the protein stability index was 1.76.
FLGSSFSPVRCGGPGDASPRLCGA showed a protein stability index of 1.95.
With FLGSSFSPVRCGGPGDASPRNCGA the protein stability index was 1.55.
For FLGSSFSPVRCGGPGDASPRKCGA, the protein stability index was 1.81.
For FLGSSFSPVRCGGPGDASPRVCGA, the protein stability index was 1.74.
In the case of FLGSSFSPVRCGGPGDASPRTCGA, the protein stability index is reported as 2.08.
With FLGSSFSPVRCGGPGDASPRWCGA the protein stability index was 1.38.

Variants of: B2
Assay: as above
Conditions: c terminus: native
For ENVFTGEDLDELEEELNTLDLEE, the protein stability index was 4.6.
ENRFTGEDLDELEEELNTLDLEE showed a protein stability index of 4.71.
ENWFTGEDLDELEEELNTLDLEE showed a protein stability index of 3.55.
Variant ENCFTGEDLDELEEELNTLDLEE has a protein stability index of 3.83.
ENEFTGEDLDELEEELNTLDLEE showed a protein stability index of 4.08.
In the case of ENQFTGEDLDELEEELNTLDLEE, the protein stability index is reported as 4.62.
Work on ENNFTGEDLDELEEELNTLDLEE yielded a protein stability index of 4.8.
Variant ENAFTGEDLDELEEELNTLDLEE has a protein stability index of 4.1.
ENYFTGEDLDELEEELNTLDLEE showed a protein stability index of 3.6.
Work on ENMFTGEDLDELEEELNTLDLEE yielded a protein stability index of 5.09.
